Assay results from patent US20260242485A1 (LEPU BIOPHARMA, published 2026).
Each block holds one binder with its values, some of them ahead of it.

How the values were obtained:
[1] = molecular target: T1, cynomolgus CD16 expressed on CHO-K1 cells (cynomolgus, UniProt Q8SPW2 17-254); experiment: flow cytometry, CHO-K1-cyno CD16 cells, geometric mean
T1 construct: whole, on cells; also called cyno CD16; CHO-K1-cynoCD16
Procedure: (§1) In order to evaluate the binding activity of the chimeric mAbs to human CD16A expressed on cells, cell-based binding assay was employed as followed. […] The antibody dilutions were incubated with 1×10⁵ indicated cells in the 96-well microplate for one hour at 4° C. The antibodies binding to the antigen on the cell surface were detected with PE fluorophore-conjugated anti-human IgG Fc secondary antibodies (ThermoFisher scientific, Cat. No. 12-4998-82) at a dilution rate of 1:1000. Cells were analyzed by flow cytometer LSRFortessa Cell Analyzer (BD Biosciences). Data were analyzed with Flowjo 10.0 software. The graph and statistics analysis were generated with four-parameter nonlinear regression curve fit in Graphpad Prism 9 software.
(§2) The assay was performed following the protocol described above.

[2] = molecular target: T2, human CD16A-158V expressed on CHO-K1 cells (human, UniProt P08637 17-254); experiment: flow cytometry, CHO-K1-hCD16A-158V cells, geometric mean
T2 construct: whole, on cells; also called hCD16A-158V; CHO-K1-hCD16A-158V
T2 sequence (P08637 17-254 F176V): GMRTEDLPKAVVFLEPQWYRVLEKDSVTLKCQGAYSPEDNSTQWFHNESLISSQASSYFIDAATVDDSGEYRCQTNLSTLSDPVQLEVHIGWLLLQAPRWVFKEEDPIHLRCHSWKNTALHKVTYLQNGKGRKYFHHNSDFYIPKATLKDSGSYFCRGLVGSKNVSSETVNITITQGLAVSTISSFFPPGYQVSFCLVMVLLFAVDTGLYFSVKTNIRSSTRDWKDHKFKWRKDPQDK
Procedure: as §1, §2

[3] = molecular target: T1, cynomolgus CD16 expressed on CHO-K1 …; experiment: flow cytometry, CHO-K1-cyno CD16 cells, Alexa Fluor 647 anti-human IgG Fc, geometric mean
Procedure: as §1
(§3) The assay was performed following the protocol described above. The antibodies binding to the antigen on the cell surface were detected with Alexa Fluor® 647 AffiniPure™ F(ab′)₂ fragment goat anti-human IgG Fcγ fragment specific secondary antibody (Jackson Immuno Research, Cat. No. 109-606-098) at a dilution rate of 1:2000.

[4] = molecular target: T3, human CD16A-158F expressed on CHO-K1 cells (human, UniProt P08637 17-254); experiment: flow cytometry, CHO-K1-hCD16A-158F cells, Alexa Fluor 647 anti-human IgG Fc, geometric mean
T3 construct: whole, on cells
T3 sequence (P08637 17-254): as the sequence (P08637 17-254 F176V) above, with V160F counted along it
Procedure: as §1, §3

[5] = molecular target: T3, human CD16A-158F expressed on CHO-K1 …; experiment: flow cytometry, CHO-K1-hCD16A-158F cells, geometric mean
Procedure: as §1, §2

[6] = molecular target: T2, human CD16A-158V expressed on CHO-K1 …; experiment: flow cytometry, CHO-K1-hCD16A-158V cells, Alexa Fluor 647 anti-human IgG Fc, geometric mean
Procedure: as §1, §3

[7] = molecular target: T4, human GPC3 on HepG2 cells (human, UniProt P51654 25-554); experiment: flow cytometry, HepG2 cells (GPC3 positive), geometric mean
T4 construct: whole, on cells; also called GPC3-positive HepG2 cells
T4 sequence (P51654 25-554 limits assumed): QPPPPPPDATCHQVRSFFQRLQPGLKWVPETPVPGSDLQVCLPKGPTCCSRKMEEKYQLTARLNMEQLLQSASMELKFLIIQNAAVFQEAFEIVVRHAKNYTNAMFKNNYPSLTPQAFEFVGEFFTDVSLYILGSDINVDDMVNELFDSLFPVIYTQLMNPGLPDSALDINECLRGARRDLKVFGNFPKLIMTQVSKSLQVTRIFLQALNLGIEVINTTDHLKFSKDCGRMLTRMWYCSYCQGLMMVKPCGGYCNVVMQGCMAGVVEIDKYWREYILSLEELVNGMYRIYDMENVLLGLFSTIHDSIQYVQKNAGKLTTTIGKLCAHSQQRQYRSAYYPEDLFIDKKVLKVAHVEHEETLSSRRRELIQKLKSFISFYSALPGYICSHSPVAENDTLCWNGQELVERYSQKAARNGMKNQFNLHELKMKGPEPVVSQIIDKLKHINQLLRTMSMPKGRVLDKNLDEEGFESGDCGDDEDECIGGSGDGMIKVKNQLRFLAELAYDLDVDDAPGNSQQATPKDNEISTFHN

[8] = molecular target: T3, human CD16A-158F expressed on CHO-K1 …; experiment: flow cytometry, CHO-K1-hCD16A-158F cells, geometric mean; remark: listed apart in the source
[9] = molecular target: T2, human CD16A-158V expressed on CHO-K1 …; experiment: flow cytometry, CHO-K1-hCD16A-158V cells, geometric mean; remark: listed apart in the source
Source text: (§4) The purpose of the assay was to evaluate the binding of BsAb to each of the hFcγRs.

[10] = molecular target: T3, human CD16A-158F expressed on CHO-K1 …; experiment: flow cytometry, CHO-K1-hCD16A-158F cells, geometric mean; remark: listed apart in the source
Source text: as §4

T1 sequence (Q8SPW2 17-254): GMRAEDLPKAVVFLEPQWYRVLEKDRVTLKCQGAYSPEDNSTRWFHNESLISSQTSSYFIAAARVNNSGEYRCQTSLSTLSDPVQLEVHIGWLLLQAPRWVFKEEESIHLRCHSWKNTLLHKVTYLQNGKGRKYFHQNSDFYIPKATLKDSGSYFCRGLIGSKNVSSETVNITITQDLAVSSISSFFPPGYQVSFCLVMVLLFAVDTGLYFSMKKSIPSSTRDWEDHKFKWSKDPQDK

B1: 45H6E8-z21 (antibody, human IgG1, V domains shown)
VH: QVQLVQSGAEVKKPGASVKVSCKVSGYTLTDYYMQWVRQAPGKGLEWMGWIDPENGDTEYAPKFQGRVTMTADTSTDTAYMELSSLRSEDTAVYYCTTGGNYVDWGQGTTVTVSS
VL: DIQMTQSPSFLSASVGDRVTITCKASQNVGTAVAWYQQKPGKAPKLLIYSASNRYTGVPDRFSGSGSGTDFTLTISSLQPEDFATYFCQQYSSYPLLTFGQGTRLEIK
notes: Human IgG1 LALAPG constant region; also called HU-VH1-8 / HU-VL1-3
EC50 (read off the curve) [1]: ~0.7 nM
EC50 (read off the curve) [2]: ~0.4 nM
EC50 (read off the curve) [3]: ~1 nM
EC50 (read off the curve) [4]: ~0.4 nM
EC50 (read off the curve) [5]: ~0.4 nM
EC50 (read off the curve) [6]: ~0.4 nM

B4: GPC3-hIgG1 (antibody)
heavy: not shown
light: DIVMTQTPLSLSVTPGQPASISCRSSQSLVHSNGNTYLQWYLQKPGQSPQLLIYKVSNRFSGVPDRFSGSGSGTDFTLKISRVEAEDVGVYYCFQSIHVPYTFGGGTKLEIKRTVAAPSVFIFPPSDEQLKSGTASVVCLLNNFYPREAKVQWKVDNALQSGNSQESVTEQDSKDSTYSLSSTLTLSKADYEKHKVYACEVTHQGLSSPVTKSFNRGEC
notes: also called GPC3-hIgG1 mAb with wild-type Fc region
EC50 (read off the curve) [7]: ~0.3 nM
binding result [8]: no binding (tested: 100 nM)

B5: CCR8-hIgG1 mAb (antibody)
VH: not shown
VL: DIVMTQSPLSLPVTPGEPASISCRSSKSLLHSNANTYLYWYLQKPGQSPQLLIYRMSNLASGVPDRFSGSGSGTAFTLKISRVEAEDVGVYYCMQHLEYPFTFGGGTKLEIKRTVAAPSVFIFPPSDEQLKSGTASVVCLLNNFYPREAKVQWKVDNALQSGNSQESVTEQDSKDSTYSLSSTLTLSKADYEKHKVYACEVTHQGLSSPVTKSFNRGEC
notes: Wildtype human IgG1; also called anti-hCCR8 monoclonal antibody with wildtype Fc hIgG1
EC50 [9]: 5.2 nM
EC50 [10]: 20 nM

B6: CCR8-45H6E8-hIgG1LALAPG (bispecific antibody)
heavy: EVQLVESGGGLVQPGGSLRLSCAASGFSFNTYVMNWVRQAPGKGLEWVARIRTKSNNYATFYVDSVKDRFTISRDDSKNSLYLQMNSLKTEDTAVYYCVSGTITRLGAGLDYWGQGTLVTVSSASTKGPSVFPLAPSSKSTSGGTAALGCLVKDYFPEPVTVSWNSGALTSGVHTFPAVLQSSGLYSLSSVVTVPSSSLGTQTYICNVNHKPSNTKVDKKVEPKSCDKTHTCPPCPAPEAAGGPSVFLFPPKPKDTLMISRTPEVTCVVVDVSHEDPEVKFNWYVDGVEVHNAKTKPREEQYNSTYRVVSVLTVLHQDWLNGKEYKCKVSNKALGAPIEKTISKAKGQPREPQVYTLPPSREEMTKNQVSLTCLVKGFYPSDIAVEWESNGQPENNYKTTPPVLDSDGSFFLYSKLTVDKSRWQQGNVFSCSVMHEALHNHYTQKSLSLSPGKGGGGSGGGGSGGGGSEVQLQQSGAELVRSGASVKLSCTASGFNIKDYYMQWVKQRPEQGLEWIGWIDPENGDTEYAPKFQGKATMTADTSSNTAYLQLSSLTSEDTAVYYCTTGGNYVDWGQGTTLTVSSGGGGSGGGGSGGGGSDIVMTQSQKFMSTSVGDRVSITCKASQNVGTAVAWYQQKPGQSPKLLIYSASNRYTGVPDRFTGSGSGTDFTLTISNMQSEDLADYFCQQYSSYPLLTFGAGTNLELK
light: DIVMTQSPLSLPVTPGEPASISCRSSKSLLHSNANTYLYWYLQKPGQSPQLLIYRMSNLASGVPDRFSGSGSGTAFTLKISRVEAEDVGVYYCMQHLEYPFTFGGGTKLEIKRTVAAPSVFIFPPSDEQLKSGTASVVCLLNNFYPREAKVQWKVDNALQSGNSQESVTEQDSKDSTYSLSSTLTLSKADYEKHKVYACEVTHQGLSSPVTKSFNRGEC
notes: to be checked; also called CCR8-45H6E8-hIgG1LALAPG BsAb; CCR8-45H6E8 LALAPG BsAb
EC50 [9]: 0.57 nM
EC50 [10]: 0.29 nM

Other lines, results leading:

binding result [7]: no binding (tested: 100 nM)
B2: 45H6E8-z21p1 (antibody, V domains shown)
VH: QVQLVQSGAEVKKPGASVKVSCKVSGYTLTDYYMQWVRQAPGKGLEWMGWIDPEQGDTEYAPKFQGRVTMTADTSTDTAYMELSSLRSEDTAVYYCTTGGNYVDWGQGTTVTVSS
VL: DIQMTQSPSFLSASVGDRVTITCKASQNVGTAVAWYQQKPGKAPKLLIYSASNRYTGVPDRFSGSGSGTDFTLTISSLQPEDFATYFCQQYSSYPLLTFGQGTRLEIK
notes: PTM-removed version of z21

EC50 (read off the curve) [7]: ~0.3 nM
B3: GPC3-hIgG1DE (antibody)
chain 1: not shown
chain 2: DIVMTQTPLSLSVTPGQPASISCRSSQSLVHSNGNTYLQWYLQKPGQSPQLLIYKVSNRFSGVPDRFSGSGSGTDFTLKISRVEAEDVGVYYCFQSIHVPYTFGGGTKLEIKRTVAAPSVFIFPPSDEQLKSGTASVVCLLNNFYPREAKVQWKVDNALQSGNSQESVTEQDSKDSTYSLSSTLTLSKADYEKHKVYACEVTHQGLSSPVTKSFNRGEC
